The experiment concerns the target EGFR co-transfected into Q293 cells (UniProt P00533). Nature of the experiment: co-IP.

On to “TROY CRD2 (from UniProt Q9NS68 30-423) (receptor)”, for which the amount in the anti-EGFR immunoprecipitate, normalized to wild type TROY was found to be 0.43.

Take “TROY CRD3 (from UniProt Q9NS68 30-423) (receptor)”: the amount in the anti-EGFR immunoprecipitate, normalized to wild type TROY worked out at 0.83.
